# In patent US20210139581A1 (Alector, published 2021):
# B1: AB-63.7 (antibody, V domains shown)
# VH: QVQLVQSGAEVKKPGASVKVSCKASGYTFTDYNLHWVRQAPGQGLEWIGFIYPSNGITGYAQKFQGRVTMTVDTSTSTVYMELSSLRSEDTAVYYCARSTVDYFDYWGQGTLVTVSS
# VL: DIVLTQSPDSLAVSLGERATINCRASQDVSTSTYSYMHWYQQKPGQPPKLLIKYAFNLESGVPDRFSGSGSGTDFTLTISSLQAEDVAVYYCQHSWEIPLEFGQGTKLEIK
# B2: AB-63.10 (antibody, V domains shown)
# VH: QVQLVQSGAEVKKPGASVKVSCKASGYTETDYNLHWVRQAPGQGLEWIGFIYPSNGITGYAQKFQGRVTMTVDTSTSTVYMELSSLRSEDTAVYYCARSDVDYFDYWGQGTLVTVSS
# VL: DIVLTQSPDSLAVSLGERATINCRASQDVSTSTYSYMHWYQQKPGQPPKLLIKYASNLESGVPDRFSGSGSGTDFTLTISSLQAEDVAVYYCQHSWELPLTFGQGTKLEIK
# B3: AB-63.8 (antibody, V domains shown)
# VH: QVQLVQSGAEVKKPGSSVKVSCKASGVTFTDYNYHWVRQAPGQGLEWIGFIYPSNGITGYAQKFQDRVTMTVDTSTSTVYMELSSLRSEDTAVYYCARSTVDYFDYWGQGTLVTVSS
# VL: DIVLTQSPDSLAVSLGERATINCRASQDVSTSTYSYMHWYQQKPGQPPKLLIKYASNLESGVPDRFSGSGSGTDFTLTISSLQAEDVAVYYCQHSWEIPLTFGQGTKLEIK
# B4: AB-63.13 (antibody, V domains shown)
# VH: QVQLVQSGAEVKKPGASVKVSCKASGYTFTDYNLHWVRQAPGQGLEWIGFIYPSNGIRGYAQKFQGRVTMTVDTSTSTVYMELSSLRSEDTAVYYCARSDVDYFDYWGQGTLVTVSS
# VL: DIVLTQSPDSLAVSLGERATINCRASQSVSTSTYSYMHWYQQKPGQPPKLLIKYASNLESGVPDRFSGSGSGTDFTLTISSLQAEDVAVYYCQHSEEIPLTFGQGTKLEIK
# B5: AB-63.11 (antibody, V domains shown)
# VH: QVQLVQSGAEVKKPGASVKVSCKASGYTFTDYNFHWVRQAPGQGLEWIGFIYPANGITGYAQKDQGRVTMTVDTSTSTVYMELSSLRSEDTAVYYCARSDVDYFDYWGQGTLVTVSS
# VL: DIVLTQSPDSLAVSLGERATINCRASQDVSTSTYSYMHWYQQKPGQPPKLLIKYASNLESGVPDRFSGSGSGTDFTLTISSLQAEDVAVYYCQHSWEIPLTFGQGTKLEIK
# B6: AB-63.14 (antibody, V domains shown)
# VH: QVQLVQSGAEVKKPGSSVKVSCKASGYTFTDYNLHWVRQAPGQGLEWIGFIYPSNGITGYAQKFQGRVTMTVDTSTSTVYMELSSLRSEDTAVYYCARSDVDYFDYWGQGTLVTVSS
# VL: DIVLTQSPDSLAVSLGERATIDCKASQDVSTSTYSYMHWYQQKPGQPPKLLIKYASNLESGVPDRFSGSGSGTDFTLTISSLQAEDVAVYYCQHSWEIPLTFGQGTKLEIK
# B7: AB-63.12 (antibody, V domains shown)
# VH: QVQLVQSGAEVKKPGASVKVSCKASGYTFTDYNFHWVRQAPGQGLEWIGFIYPSNGITGYAQKFTGRVTMTVDTSTSTVYMELSSLRSEDTAVYYCARSTVDYFDDWGQGTLVTVSS
# VL: DIVLTQSPDSLAVSLGERATINCRASQDVSTSTYSYMHWYQQKPGQPPKLLIKYASNVESGVPDRFSGSGSGTDFTLTISSLQAEDVAVYYCQHSWAIPLTFGQGTKLEIK
# B8: AB-63.15 (antibody, V domains shown)
# VH: QVQLVQSGAEVKKPGASVKVSCKASGYTFTDYNYHWVRQAPGQGLEWIGFIYPSNGITGYAQKFQGRVTMTVDTSTSTVYMELSSLRSEDTAVYYCARSDVDYFDLWGQGTLVTVSS
# VL: DIVLTQSPDSLAVSLGERATINCRASQDVSTSTYSYMHWYQQKPGQPPKLLIKYASNVESGVPDRFSGSGSGTDFTLTISSLQAEDVAVYYCQHSWEIPLTFGQGTKLEIE
# B9: AB-63.9 (antibody, V domains shown)
# VH: QVQLVQSGAEVKKPGASVKVSCKASGYAFTDYNLHWVRQAPGQGLEWIGFIYPSNGITGYAQKFQGRVTMTVDTSTSTVYMELSSLRSEDTAVYYCARSDVDYFDYWGQGTLVTVSS
# VL: DIVLTQSPDSLAVSLGERATINCRASQDVSTSTYSYMHWYQQKPGQPPKLLIKYASYLESGVPDRFSGSGSGTDFTLTISSLQAEDVAVYYCEHSWEIPLTFGQGTKLEIK
# Key:
# [1] = biological target: human CD33 on primary human monocyte-derived dendritic cells (human, UniProt P20138 18-364); assay: cell-based or functional assay
# Chain of human CD33 on primary human monocyte-derived dendritic cells (P20138 18-364): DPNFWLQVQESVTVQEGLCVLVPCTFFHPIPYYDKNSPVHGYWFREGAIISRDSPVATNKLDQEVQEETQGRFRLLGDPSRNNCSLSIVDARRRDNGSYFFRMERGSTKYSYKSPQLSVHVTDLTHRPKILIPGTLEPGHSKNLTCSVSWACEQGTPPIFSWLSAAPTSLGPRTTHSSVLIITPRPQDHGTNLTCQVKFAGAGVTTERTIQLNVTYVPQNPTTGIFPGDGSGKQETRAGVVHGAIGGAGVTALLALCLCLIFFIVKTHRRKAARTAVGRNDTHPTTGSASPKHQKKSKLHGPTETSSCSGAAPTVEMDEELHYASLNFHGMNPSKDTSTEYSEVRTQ
# [2] = biological target: T1, human CD33 (human, UniProt P20138 18-259, limits assumed); assay: BLI (ForteBio), Fab 100 nM on immobilized CD33; kon/koff columns printed 3 rows too low, assigned by koff/kon = printed KD of AB-63.7
# T1 construct: Human CD33 immobilized on the BLI sensor tip or the BIAcore C1 chip; also called Siglec-3
# T1 sequence (P20138 18-259 limits assumed): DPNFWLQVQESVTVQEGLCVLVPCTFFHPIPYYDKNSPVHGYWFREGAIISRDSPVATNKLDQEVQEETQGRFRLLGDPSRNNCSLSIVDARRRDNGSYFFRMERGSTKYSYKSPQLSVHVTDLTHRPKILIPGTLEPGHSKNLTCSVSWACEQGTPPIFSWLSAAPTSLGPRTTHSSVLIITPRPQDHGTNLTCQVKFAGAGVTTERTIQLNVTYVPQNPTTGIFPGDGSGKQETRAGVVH
# Description: (§1) The affinities (KD) of the humanized antibodies for human CD33 were measured for each antibody by BioLayer Interferometry in a ForteBio assay according to standard techniques (Estep et al. (2013) MAbs 5(2): 270-8). […] The assay was carried out at room temperature.
# (§2) The affinities of AB-H14 and its affinity-matured variants (Table 15) and AB-H63 and its affinity-matured variants (Table 16), for human CD33 were measured by Fortebio assay according to the method described in Example 1 above.
# [3] = biological target: T1, human CD33; assay: BLI (ForteBio), Fab 100 nM on immobilized CD33
# [4] = biological target: T1, human CD33; assay: BLI (ForteBio), Fab 100 nM on immobilized CD33; kon/koff columns printed 3 rows too low, assigned by koff/kon = printed KD of AB-63.10
# Description: as §1, §2
# [5] = biological target: T1, human CD33; assay: BLI (ForteBio), Fab 100 nM on immobilized CD33; kon/koff columns printed 3 rows too low, assigned by koff/kon = printed KD of AB-63.8
# Description: as §1, §2
# [6] = biological target: T1, human CD33; assay: BLI (ForteBio), Fab 100 nM on immobilized CD33; kon/koff columns printed 3 rows too low, assigned by koff/kon = printed KD of AB-63.13
# Description: as §1, §2
# [7] = biological target: T1, human CD33; assay: BLI (ForteBio), Fab 100 nM on immobilized CD33; kon/koff columns printed 3 rows too low, assigned by koff/kon = printed KD of AB-63.11
# Description: as §1, §2
# [8] = biological target: T1, human CD33; assay: BLI (ForteBio), Fab 100 nM on immobilized CD33; kon/koff columns printed 3 rows too low, assigned by koff/kon = printed KD of AB-63.14
# Description: as §1, §2
# [9] = biological target: T1, human CD33; assay: BLI (ForteBio), Fab 100 nM on immobilized CD33; kon/koff columns printed 3 rows too low, assigned by koff/kon = printed KD of AB-63.12
# Description: as §1, §2
# [10] = biological target: T1, human CD33; assay: BLI (ForteBio), Fab 100 nM on immobilized CD33; kon/koff columns printed 3 rows too low, assigned by koff/kon = printed KD of AB-63.15
# Description: as §1, §2
# [11] = biological target: T1, human CD33; assay: BLI (ForteBio), Fab 100 nM on immobilized CD33; kon/koff columns printed 3 rows too low, assigned by koff/kon = printed KD of AB-63.9
# Description: as §1, §2
Binder,Maximal Downregulation (% CD33 remaining) [1] [%],Receptor downregulation (EC50) [1] [nM],Fold affinity improvement over parental Ab (AB-H63) [3] [fold],Kd [3] [nM],other results
B1,18.4,0.0416,2.97,0.917,koff [2]: 0.000546 s⁻¹; kon [2]: 596000 M⁻¹ s⁻¹
B2,21.2,0.0418,5.84,0.466,koff [4]: 0.000336 s⁻¹; kon [4]: 721000 M⁻¹ s⁻¹
B3,22,0.0167,12.4,0.219,koff [5]: 0.0002 s⁻¹; kon [5]: 913000 M⁻¹ s⁻¹
B4,25.5,0.0448,12.1,0.225,koff [6]: 0.00023 s⁻¹; kon [6]: 1.02e+06 M⁻¹ s⁻¹
B5,23,0.044,7.09,0.384,koff [7]: 0.000322 s⁻¹; kon [7]: 839000 M⁻¹ s⁻¹
B6,25.3,0.0519,11.2,0.244,koff [8]: 0.0002 s⁻¹; kon [8]: 819000 M⁻¹ s⁻¹
B7,27.5,0.035,9.84,0.277,koff [9]: 0.0002 s⁻¹; kon [9]: 723000 M⁻¹ s⁻¹
B8,27.5,0.0476,12.1,0.225,koff [10]: 0.000204 s⁻¹; kon [10]: 903000 M⁻¹ s⁻¹
B9,20.1,0.0407,10.1,0.271,koff [11]: 0.0002 s⁻¹; kon [11]: 738000 M⁻¹ s⁻¹
